Experimental data taken from the supplement of paper PMC10724198.
± gives the standard deviation of the averaged measurements.

Test system: Saccharomyces cerevisiae
Assay: protein stability index of tFT-peptide fusion (C-terminal peptide) (PSI (0-1 scale)); higher = more stable (slower turnover)
Settings: temperature: 30 C
Method: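 MPS profiling in S. cerevisiae of the yeast C-terminome library: the last 12 aa of each annotated ORF are fused to the C-terminus of a sfGFP-mCherry timer, after a GGGS linker. Cells are FACS-sorted into 8 mCherry/sfGFP bins and deep-sequenced. PSI runs from 0 (unstable) to 1 (stable); wild type and das1Δ backgrounds, two technical replicates each.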

[1] = genetic background: das1 deletion

Sequence	protein stability index [1]	protein stability index (genetic background: wild type)
RKFFSMRSLNSR [CHL1 C-terminal 12 aa]	0.696 ± 0.014	0.6589 ± 0.0015
DNEGSRKMLKIE [CIN8 C-terminal 12 aa]	0.6613 ± 0.0033	0.662 ± 0.042
NGNNAESGETKQ [SSC1 C-terminal 12 aa]	0.6813 ± 0.0068	0.6673 ± 0.0059
IEKADIVQQAIR [SLP1 C-terminal 12 aa]	0.691 ± 0.008	0.66 ± 0.033
TIGWLQESLAGI [HOT1 C-terminal 12 aa]	0.706 ± 0.0076	0.684 ± 0.029
QLIDIAKKMGIL [BIR1 C-terminal 12 aa]	0.678 ± 0.051	0.276 ± 0.0083
VNRQLEMDLPIE [YKL066W C-terminal 12 aa]	0.7074 ± 0.0056	0.712 ± 0.042
PEKGSGFNTNLG [DCS2 C-terminal 12 aa]	0.6973 ± 0.0014	0.738 ± 0.025
RLQAMLNSSSSI [CEF1 C-terminal 12 aa]	0.681 ± 0.015	0.669 ± 0.008
NYLKKHSEKQDA [ATP19 C-terminal 12 aa]	0.709 ± 0.022	0.723 ± 0.066
AFEELYMGNCND [SIR1 C-terminal 12 aa]	0.7218 ± 0.0021	0.674 ± 0.035
DQAAKTFVIKKD [MDM38 C-terminal 12 aa]	0.703 ± 0.019	0.668 ± 0.028
DLEGVLWRSYYA [BLM10 C-terminal 12 aa]	0.744 ± 0.008	0.711 ± 0.0089
FQPLLKKNQVGY [THI3 C-terminal 12 aa]	0.704 ± 0.028	0.693 ± 0.012
NKVDINMEQEKF [UGO1 C-terminal 12 aa]	0.699 ± 0.043	0.651 ± 0.027
YLERRVRTLKKD [MRPL32 C-terminal 12 aa]	0.713 ± 0.032	0.68 ± 0.013
GDPIDLKEKKLN [RER2 C-terminal 12 aa]	0.705 ± 0.031	0.196 ± 0.032
QTTFLATAIVLC [YOR331C C-terminal 12 aa]	0.441 ± 0.018	0.4167 ± 0.0014
AINEGHEGFGLA [TOM1 C-terminal 12 aa]	0.663 ± 0.025	0.687 ± 0.024
ADVRYPNIDDYL [HCS1 C-terminal 12 aa]	0.73454 ± 6.5e-05	0.713 ± 0.048
STSCDVIQSRNA [MET22 C-terminal 12 aa]	0.71 ± 0.03	0.692 ± 0.0075

Sequence	protein stability index [1]	protein stability index (genetic background: wild type)
QQPNQNQNQNSK [FIP1 C-terminal 12 aa]	0.738 ± 0.049	0.676 ± 0.019
VNPKAKRPSNEK [NOP2 C-terminal 12 aa]	0.712 ± 0.044	0.754 ± 0.042
VSLKKGKLKAHC [YAP7 C-terminal 12 aa]	0.673 ± 0.016	0.692 ± 0.019
AGALAVAAAYLL [CWP1 C-terminal 12 aa]	0.693 ± 0.013	0.669 ± 0.0081
SRSSIKNIVKPK [MRX15 C-terminal 12 aa]	0.689 ± 0.048	0.75 ± 0.052
EPEAEQAVEDTA [HSP30 C-terminal 12 aa]	0.685 ± 0.018	0.6594 ± 0.0041
VEGKNAAASGSA [LEU4 C-terminal 12 aa]	0.7086 ± 0.0054	0.682 ± 0.013
KLRAKRLAKGGR [RPG1 C-terminal 12 aa]	0.696 ± 0.012	0.705 ± 0.011
THMKPWYRRWFW [INA17 C-terminal 12 aa]	0.742 ± 0.012	0.718 ± 0.018
KKGLTRSVKFKN [SAS10 C-terminal 12 aa]	0.708 ± 0.044	0.667 ± 0.017
LLEDQVPVETKA [PYC1 C-terminal 12 aa]	0.551 ± 0.018	0.582 ± 0.0095
NGLNWEVIEYHA [HRI1 C-terminal 12 aa]	0.724 ± 0.008	0.713 ± 0.042
IRKYGYNLAAYT [YLR462W C-terminal 12 aa]	0.6649 ± 0.00076	0.6563 ± 0.0049
ARMTGETPVAKH [YHM2 C-terminal 12 aa]	0.688 ± 0.033	0.677 ± 0.016
TMNCNNADDMLF [YGR190C C-terminal 12 aa]	0.6995 ± 0.004	0.677 ± 0.022
TDCGLETEEIDI [RAD14 C-terminal 12 aa]	0.663 ± 0.025	0.6823 ± 0.0022
VEVLENLQSVLK [ATP16 C-terminal 12 aa]	0.68 ± 0.013	0.7134 ± 0.0029
KINKNGLLENIL [IES3 C-terminal 12 aa]	0.702 ± 0.019	0.7227 ± 0.0051
DIIKSIGDSYSI [NSE3 C-terminal 12 aa]	0.69 ± 0.03	0.734 ± 0.076
NPTIGRDSKKAV [PEX30 C-terminal 12 aa]	0.694 ± 0.011	0.702 ± 0.015
MALLAMVMGVDM [URA2 C-terminal 12 aa]	0.6024 ± 0.0046	0.676 ± 0.13

Sequence	protein stability index [1]	protein stability index (genetic background: wild type)
DEQGNELSPRNY [MID2 C-terminal 12 aa]	0.69199 ± 0.00026	0.723 ± 0.035
DGSADLGGWETM [UBR2 C-terminal 12 aa]	0.732 ± 0.026	0.733 ± 0.048
KFRKDEDKSVKQ [TAN1 C-terminal 12 aa]	0.68521 ± 0.00053	0.702 ± 0.056
SHKGFFQKLGCC [YCK1 C-terminal 12 aa]	0.692 ± 0.0098	0.677 ± 0.01
DFFDYDLLFQND [PIP2 C-terminal 12 aa]	0.767 ± 0.021	0.788 ± 0.034
ISLLSQFVYKGK [EXO1 C-terminal 12 aa]	0.7 ± 0.016	0.678 ± 0.01
TIKKGTTLEPIA [GCD11 C-terminal 12 aa]	0.6896 ± 0.0033	0.7 ± 0.028
ENLENKINNLSK [STF1 C-terminal 12 aa]	0.709 ± 0.025	0.698 ± 0.034
KDEVTDDMQLEV [JLP2 C-terminal 12 aa]	0.6997 ± 0.002	0.68 ± 0.03
FPCAGSAMGSLT [YMR103C C-terminal 12 aa]	0.703 ± 0.011	0.684 ± 0.01
SQQNNNGNQNRY [RNQ1 C-terminal 12 aa]	0.7168 ± 0.002	0.6682 ± 0.0039
VKNWSKSILGFN [MSC1 C-terminal 12 aa]	0.7095 ± 0.004	0.666 ± 0.021
DGGLAGPVTVRD [FMP45 C-terminal 12 aa]	0.6903 ± 0.005	0.713 ± 0.048
HRDIVSAGSLYL [MTR4 C-terminal 12 aa]	0.723 ± 0.034	0.7 ± 0.036
SYKDTKRWMFKK [PSF3 C-terminal 12 aa]	0.724 ± 0.057	0.715 ± 0.078
KIYMANAPPPPV [VPS54 C-terminal 12 aa]	0.706 ± 0.013	0.668 ± 0.02
GTLVLGTYLLAQ [SHH3 C-terminal 12 aa]	0.612 ± 0.027	0.639 ± 0.037
QQSPHPVVDNDK [KIP2 C-terminal 12 aa]	0.6922 ± 0.0065	0.682 ± 0.035
QTILFAAFLPPA [GPI18 C-terminal 12 aa]	0.696 ± 0.025	0.682 ± 0.008
